Assay results taken from patent US20120204282.

Tests used:
Test in all cases: cell_activity
[1] = system: ZFN 23974 (synthetic construct); conditions: Cel-I assay; as pair 23966/23974
[2] = system: ZFN 22524 (synthetic construct); conditions: Cel-I assay; as pair 22524/23947; pair also used for in vivo Q344X correction in mouse retina
[3] = system: ZFN 22529 (synthetic construct); conditions: Cel-I assay; as pair 23950/22529
[4] = system: ZFN 23950 (synthetic construct); conditions: Cel-I assay; as pair 23950/22529
[5] = system: ZFN 23966 (synthetic construct); conditions: Cel-I assay; as pair 23966/23974
[6] = system: ZFN 23947 (synthetic construct); conditions: Cel-I assay; as pair 22524/23947; pair also used for in vivo Q344X correction in mouse retina

In the case of “ATGTCCAGGCTGCTGCCTCGGTCCCATT (double strand) [RHO intron 1 site for 23974]”, the activity [1] is reported as 9.3 % NHEJ.
In the case of “CAGTGGGTTCTTGCCGCAGCAGATGGTG (double strand) [RHO exon 5 site for 22524]”, the activity [2] is reported as 11.5 % NHEJ.
For “GAGCCATGGCAGTTCTCCATGCTGGCCG (double strand) [RHO exon 1 site for 22529]”, the activity [3] was 8.7 % NHEJ.
“GCCAGGTAGTACTGTGGGTACTCGAAGG (double strand) [RHO exon 1 site for 23950]” was tested, and the activity [4] was 8.7 % NHEJ.
Sequence “GGGGAGACAGGGCAAGGCTGGCAGAGAG (double strand) [RHO intron 1 site for 23966]” has an activity [5] of 9.3 % NHEJ.
“GTGACGATGAGGCCTCTGCTACCGTGTC (double strand) [RHO exon 5 site for 23947]” showed an activity [6] of 11.5 % NHEJ.
